For three substances, Kd, binding signal (fold difference vs WT Gag) and binding signal (fold decrease in affinity vs WT Gag) results are on record in paper PMC7232488.

Data set [1] addresses Gag (Human immunodeficiency virus 1) (UniProt O93182). Conditions: cited from earlier work.
For data set [2], the system named is Δ1 SP1 Gag (HIV-1 (isolate BH10)). Description: MST.
In data set [3] the test system is WM Gag (HIV-1 (isolate BH10)). Description: MST.

Gag, sequence (O93182 2-500): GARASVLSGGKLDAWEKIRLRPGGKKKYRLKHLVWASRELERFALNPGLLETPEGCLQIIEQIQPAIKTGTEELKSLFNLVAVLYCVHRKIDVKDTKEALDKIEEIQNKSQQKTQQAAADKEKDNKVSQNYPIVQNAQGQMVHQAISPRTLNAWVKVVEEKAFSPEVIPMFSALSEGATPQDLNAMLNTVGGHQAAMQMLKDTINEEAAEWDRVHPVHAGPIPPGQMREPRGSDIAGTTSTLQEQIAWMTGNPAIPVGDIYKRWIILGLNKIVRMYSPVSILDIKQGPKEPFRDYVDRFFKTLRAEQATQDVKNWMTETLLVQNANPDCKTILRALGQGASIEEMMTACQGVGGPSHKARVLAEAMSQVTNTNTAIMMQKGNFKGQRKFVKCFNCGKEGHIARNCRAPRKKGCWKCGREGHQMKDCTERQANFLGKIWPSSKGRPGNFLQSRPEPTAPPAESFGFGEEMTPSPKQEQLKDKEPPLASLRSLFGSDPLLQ

Gag (from UniProt O93182): in data set [1], the Kd was 5.5 µM. reverse complement RNA (non-Ψ control) gave a binding signal (fold difference vs WT Gag) in data set [2] of 2.

Ψ RNA showed a binding signal (fold decrease in affinity vs WT Gag) in data set [3] of 3.5. In data set [2], this substance had a binding signal (fold difference vs WT Gag) of 2.
